Experimental data as given in the supplement of paper PMC9876800.

Tested on: peptide library, one residue held at a place counted from the S/T acceptor
Assay: relative phosphorylation of the sub-library (ratio to the mean residue at this position); higher = residue favoured
Conditions: human
Summary of the method: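 Relative sub-library phosphorylation is the ratio of each sub-library's signal to the mean residue at that position. The signal came from phosphorimaging of spots on streptavidin membranes, quantified by densitometry, after purified recombinant kinases reacted with biotinylated degenerate peptide sub-libraries in 384-well plates. Reactions held 50 μM peptide and 50 μM ATP spiked with γ-32P-ATP for 90 min under kinase-specific conditions.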

Chain of MARK3, construct: Full length (P27448 whole entry, looked up): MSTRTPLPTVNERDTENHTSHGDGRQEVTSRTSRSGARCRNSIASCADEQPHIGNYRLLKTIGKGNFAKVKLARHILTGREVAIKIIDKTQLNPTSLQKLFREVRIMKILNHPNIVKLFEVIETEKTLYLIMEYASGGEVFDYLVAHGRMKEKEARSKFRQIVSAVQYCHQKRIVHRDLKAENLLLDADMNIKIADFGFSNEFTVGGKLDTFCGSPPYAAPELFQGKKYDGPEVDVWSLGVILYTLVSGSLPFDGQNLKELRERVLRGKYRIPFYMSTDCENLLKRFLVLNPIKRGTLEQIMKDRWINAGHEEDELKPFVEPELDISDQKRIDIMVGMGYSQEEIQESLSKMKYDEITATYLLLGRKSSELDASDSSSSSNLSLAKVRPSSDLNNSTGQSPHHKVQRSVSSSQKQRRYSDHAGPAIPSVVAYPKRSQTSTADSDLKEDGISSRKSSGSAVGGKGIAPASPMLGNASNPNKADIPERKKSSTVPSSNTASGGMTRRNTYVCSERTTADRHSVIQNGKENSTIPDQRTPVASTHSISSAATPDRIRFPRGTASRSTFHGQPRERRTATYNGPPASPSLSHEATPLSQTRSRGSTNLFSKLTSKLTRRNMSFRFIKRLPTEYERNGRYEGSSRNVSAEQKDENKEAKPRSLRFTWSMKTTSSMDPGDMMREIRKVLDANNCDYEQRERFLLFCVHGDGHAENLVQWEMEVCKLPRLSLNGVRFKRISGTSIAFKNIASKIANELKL
Chain of PBK, construct: Full length (Q96KB5 whole entry, looked up): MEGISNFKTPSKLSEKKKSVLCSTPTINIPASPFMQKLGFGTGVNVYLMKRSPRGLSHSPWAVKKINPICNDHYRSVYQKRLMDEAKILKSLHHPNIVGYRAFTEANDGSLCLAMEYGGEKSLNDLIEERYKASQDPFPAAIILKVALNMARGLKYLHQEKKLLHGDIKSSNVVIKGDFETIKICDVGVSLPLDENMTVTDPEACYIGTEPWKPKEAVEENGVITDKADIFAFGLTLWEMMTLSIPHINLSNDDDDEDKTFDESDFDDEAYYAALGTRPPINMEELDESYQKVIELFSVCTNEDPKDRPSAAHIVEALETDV
Chain of PLK4, construct: aa1-836 (O00444 1-836, looked up): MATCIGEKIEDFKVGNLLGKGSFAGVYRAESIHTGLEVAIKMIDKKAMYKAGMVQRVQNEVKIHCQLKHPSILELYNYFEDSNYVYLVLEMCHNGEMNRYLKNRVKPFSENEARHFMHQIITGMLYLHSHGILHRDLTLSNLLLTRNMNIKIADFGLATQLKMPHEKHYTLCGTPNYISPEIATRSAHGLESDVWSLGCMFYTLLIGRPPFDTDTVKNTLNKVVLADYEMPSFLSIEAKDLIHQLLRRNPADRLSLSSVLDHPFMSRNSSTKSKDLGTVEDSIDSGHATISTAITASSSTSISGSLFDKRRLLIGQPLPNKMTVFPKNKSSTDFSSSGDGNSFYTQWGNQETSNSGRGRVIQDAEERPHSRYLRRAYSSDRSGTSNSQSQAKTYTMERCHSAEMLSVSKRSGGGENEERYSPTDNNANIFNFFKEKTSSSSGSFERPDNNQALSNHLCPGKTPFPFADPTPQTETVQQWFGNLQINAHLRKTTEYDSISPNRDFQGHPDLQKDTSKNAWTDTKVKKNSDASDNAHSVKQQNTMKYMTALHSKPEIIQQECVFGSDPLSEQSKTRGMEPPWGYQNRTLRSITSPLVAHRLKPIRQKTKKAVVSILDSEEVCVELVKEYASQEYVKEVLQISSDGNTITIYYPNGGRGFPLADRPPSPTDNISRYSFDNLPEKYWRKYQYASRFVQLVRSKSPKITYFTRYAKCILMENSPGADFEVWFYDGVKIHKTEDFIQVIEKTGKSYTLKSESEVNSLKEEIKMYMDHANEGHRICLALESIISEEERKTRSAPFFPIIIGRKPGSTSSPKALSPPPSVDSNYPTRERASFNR

MARK3, construct: Full length (from UniProt P27448)
relative phosphorylation
Conditions | at +1 | at +2 | at +3 | at +4 | at -1 | at -2 | at -3 | at -4 | at -5
A fixed | 0.634 | 0.761 | 0.599 | 0.335 | 1.09 | 2.23 | 0.806 | 1.19 | 1.16
D fixed | 0.414 | 0.68 | 2.56 | 0.456 | 0.61 | 0.317 | 0.412 | 0.765 | 0.758
E fixed | 0.82 | 0.902 | 0.95 | 0.319 | 0.605 | 0.263 | 0.458 | 0.703 | 0.72
F fixed | 0.651 | 0.746 | 0.792 | 0.619 | 0.499 | 1.29 | 0.758 | 0.987 | 1.12
G fixed | 0.542 | 0.47 | 0.559 | 0.385 | 2.52 | 1.37 | 0.687 | 1.32 | 1.03
H fixed | 0.76 | 0.879 | 1.56 | 0.489 | 0.708 | 1.21 | 1.41 | 1.19 | 0.86
I fixed | 1.14 | 0.863 | 0.486 | 2.82 | 0.441 | 0.444 | 0.497 | 0.565 | 0.817
K fixed | 0.932 | 0.651 | 0.731 | 0.487 | 1.92 | 0.995 | 2.2 | 1.71 | 1.4
L fixed | 1.25 | 1.16 | 0.782 | 5.82 | 0.654 | 0.392 | 0.6 | 0.642 | 1.49
M fixed | 2.38 | 0.994 | 0.708 | 1.22 | 0.75 | 0.571 | 0.772 | 0.833 | 1.06
N fixed | 1.26 | 0.998 | 3.05 | 0.526 | 1.06 | 0.583 | 0.682 | 0.916 | 0.627
P fixed | 0.337 | 0.826 | 0.2 | 0.348 | 1.37 | 0.546 | 0.925 | 1.13 | 0.964
Q fixed | 1.62 | 0.955 | 0.929 | 0.473 | 1.19 | 0.488 | 0.736 | 0.808 | 0.722
R fixed | 1.45 | 0.708 | 0.706 | 0.349 | 1.66 | 0.969 | 3.51 | 1.52 | 1.45
V fixed | 1.23 | 0.898 | 0.488 | 1.33 | 0.707 | 0.628 | 0.524 | 0.673 | 0.824
W fixed | 0.75 | 3.62 | 0.927 | 0.557 | 0.585 | 3.05 | 1.19 | 1.19 | 1.08
Y fixed | 0.831 | 0.888 | 0.969 | 0.461 | 0.633 | 1.65 | 0.83 | 0.856 | 0.915
pThr fixed | 1.49 | 1.34 | 0.404 | 0.369 | 0.348 | 0.44 | 0.553 | 0.726 | 0.573
pTyr fixed | 0.705 | 0.679 | 0.944 | 0.328 | 0.841 | 0.64 | 0.855 | 0.686 | 0.735

PBK, construct: Full length (from UniProt Q96KB5)
relative phosphorylation
Conditions | at +1 | at +2 | at +3 | at +4 | at -1 | at -2 | at -3 | at -4 | at -5
A fixed | 1.09 | 1.14 | 1.03 | 1.16 | 1.08 | 0.848 | 1 | 1.04 | 1.29
D fixed | 0.572 | 0.524 | 0.634 | 0.644 | 0.384 | 0.427 | 0.364 | 0.545 | 0.576
E fixed | 0.364 | 0.523 | 0.604 | 0.608 | 0.397 | 0.382 | 0.37 | 0.534 | 0.491
F fixed | 0.394 | 0.849 | 0.728 | 0.848 | 0.814 | 1.47 | 1.57 | 1.07 | 0.756
G fixed | 7.99 | 1.17 | 1.69 | 1.23 | 1.25 | 0.76 | 0.673 | 1.11 | 1
H fixed | 0.527 | 1.11 | 1.2 | 0.777 | 1.48 | 1.06 | 0.965 | 1.16 | 1.41
I fixed | 0.386 | 0.928 | 0.641 | 0.976 | 0.394 | 1.07 | 0.587 | 0.563 | 0.733
K fixed | 0.475 | 0.775 | 1.25 | 1.2 | 1.37 | 1.7 | 1.49 | 1.23 | 1.38
L fixed | 0.52 | 1.04 | 0.907 | 1.05 | 0.719 | 1.07 | 0.691 | 0.669 | 0.723
M fixed | 0.93 | 1.29 | 0.717 | 0.98 | 1.06 | 1.09 | 0.845 | 0.826 | 0.833
N fixed | 0.658 | 0.913 | 1.05 | 0.855 | 1.09 | 0.678 | 0.625 | 0.991 | 0.981
P fixed | 0.592 | 1.38 | 1.69 | 1.56 | 1.06 | 0.878 | 0.872 | 1.16 | 0.914
Q fixed | 0.53 | 0.802 | 0.954 | 0.845 | 1.55 | 0.685 | 0.707 | 0.856 | 0.77
R fixed | 0.535 | 0.829 | 1.24 | 1.05 | 1.81 | 1.23 | 1.98 | 1.56 | 1.99
V fixed | 0.476 | 1.37 | 0.956 | 0.983 | 0.517 | 0.932 | 0.709 | 0.642 | 0.777
W fixed | 0.552 | 1.45 | 0.816 | 1.17 | 0.76 | 1.57 | 1.89 | 2.04 | 1.55
Y fixed | 0.406 | 0.891 | 0.9 | 1.07 | 1.27 | 1.14 | 1.66 | 1.01 | 0.812
pThr fixed | 0.348 | 0.618 | 0.721 | 0.507 | 0.317 | 0.586 | 0.638 | 0.803 | 0.703
pTyr fixed | 0.287 | 0.497 | 0.574 | 0.529 | 0.537 | 0.508 | 0.554 | 0.703 | 0.576

PLK4, construct: aa1-836 (from UniProt O00444)
relative phosphorylation
Conditions | at +1 | at +2 | at +3 | at +4 | at -1 | at -2 | at -3 | at -4 | at -5
A fixed | 0.459 | 0.471 | 0.813 | 1.24 | 0.953 | 0.708 | 1.03 | 1.24 | 1.26
D fixed | 0.141 | 0.195 | 0.641 | 0.629 | 0.452 | 2.77 | 0.913 | 1.08 | 0.912
E fixed | 0.135 | 0.148 | 0.874 | 0.705 | 0.493 | 1.26 | 0.791 | 0.991 | 0.918
F fixed | 3.31 | 2.2 | 1.18 | 0.861 | 0.621 | 0.829 | 0.569 | 0.691 | 0.873
G fixed | 0.61 | 0.24 | 0.821 | 1.4 | 2.08 | 1.35 | 1.25 | 1.42 | 1.43
H fixed | 0.675 | 1.6 | 1.03 | 1.09 | 0.988 | 1.15 | 0.848 | 1.14 | 1.21
I fixed | 1.67 | 1.39 | 1.4 | 1.01 | 0.347 | 0.395 | 0.478 | 0.625 | 0.582
K fixed | 0.413 | 0.219 | 0.704 | 1.05 | 2.14 | 0.712 | 1.07 | 1.04 | 1.28
L fixed | 1.62 | 1.35 | 1.33 | 1.01 | 0.858 | 0.398 | 0.715 | 0.748 | 0.771
M fixed | 2.44 | 0.906 | 1.2 | 1.05 | 1.33 | 0.676 | 0.867 | 0.893 | 0.728
N fixed | 0.409 | 0.294 | 0.58 | 0.829 | 1.09 | 2.41 | 1.97 | 1.54 | 1.28
P fixed | 0.168 | 0.141 | 0.381 | 1.55 | 0.331 | 0.486 | 1.98 | 1.25 | 0.926
Q fixed | 0.58 | 0.252 | 0.785 | 1.01 | 1.27 | 0.778 | 0.96 | 0.956 | 0.825
R fixed | 0.44 | 0.216 | 0.609 | 0.711 | 1.85 | 0.75 | 1.14 | 0.944 | 1.07
V fixed | 1.08 | 1.12 | 1.36 | 0.969 | 0.571 | 0.44 | 1.08 | 0.776 | 0.87
W fixed | 1.47 | 2.81 | 1.84 | 0.991 | 0.672 | 1 | 0.717 | 0.917 | 1.21
Y fixed | 1.38 | 3.44 | 1.44 | 0.889 | 0.955 | 0.881 | 0.627 | 0.746 | 0.848
pThr fixed | 0.54 | 0.446 | 0.572 | 0.592 | 0.571 | 0.796 | 1.08 | 0.931 | 0.889
pTyr fixed | 0.526 | 1.37 | 0.734 | 0.52 | 1.06 | 0.753 | 0.841 | 0.86 | 0.806
